# Assay results taken from article PMC9175631 (Journal of Virology, 2022).
# Positions count from the first letter of the chain named.
# B1: anti-ZIKV MAb 242-3 (antibody, V domains shown)
# VH: QAQLEESGGDLVKPEGSLTLTCTASGFSFTDRHYMCWIRQAPGKGLEWIACVYPGSSGSTYYASWARGRFTISKTSSTTVTLRMTSLTAADTATYFCARSSYPDSSGYSYGMDLWGPGTLVTVSS
# VL: DIVMTQTPASVEAAVGGTVTIKCQASQNINSNLAWYQQKPGQRPKFLMYLTSKLASGVPSRFRGSGSGTQFTLTISDLECADAATYYCQTYYDISNYGYAFGGGTEVVVK
# notes: recombinant rabbit IgG; 99% amino acid identity with 270-12
# B2: anti-ZIKV MAb 78-2 (antibody, V domains shown)
# VH: QQQLVESGGGLVKPGASLTLNCKASGLDFSTNSYMCWVRQAPGKGLEWIACIYVGDSSEIYYASWAKGRFTISKTSSTTVTLQMTSLTAADTATYFCARDLPSFTAPYAGYLRLWGPGTLVTVSS
# VL: QPVLTQPPSLSASLGTTARLTCTLRTGYNVGDYPLLWLQRVPGRPPRYLLTYHTEEFKHQGSGVHSRFSGSKDASENAGVLSISGLQPEDEANYYCYTVHATESSLHYVFGGGTQLTVT
# B3: anti-ZIKV MAb 270-12 (antibody, V domains shown)
# VH: B1 VH with I38V
# VL: B1 VL with N28D
# notes: source: 293-6E cells, cotransfected, purified (MabSelect SuRe protein A)
# B4: anti-ZIKV MAb 289-3 (antibody, V domains shown)
# VH: QEELEESGGDLVKPGASLTLTCKASGFSFSSGAYICWVRQAPGKGPEWIACIYTGDGRTYYANWAKRRFTISSSSSTTVALEMPSLTDADTATYFCARAIAVGAGYGVGNYFTLWGPGTLVTVSS
# VL: DIVMTQTPSSVSAAVGGTVTINCHASENIYGYLSWYQQKPGQPPKLLIYKASTLASGVPSRFKGSGAGTQFTLTITALECADAATYYCQSYYTSSSNADGSENAFGGGTEVVVE
# B5: anti-ZIKV MAb 306-2 (antibody, V domains shown)
# VH: QSLEESGGDLVKPGASLTLTCTASGFDFSDRYYMCWVRQAPGKGLEWIGCIYVGSGDTYYASWAKGRFTISRTSSTTVTLQMTRLTAADTATYFCARHPGTYFTLWGPGTLVTVSS
# VL: DVVMTQTPSSVSAAVGGTVTINCQASQNIVNNLAWYQQRPGQPPKLLIYDTSTLASGVPSRFKGSGSGTEFTLTISDLECADAATYYCQTYYYYNKIINGFGGGTEVVVK
# B6: framework region (FWR) amino acid reverted anti-ZIKV MAb 102-1 (antibody, V domains shown)
# VH: QSLEESGGDLVKPGASLTLTCTASGFSFNSNYWMCWVRQAPGKGLEWIACVFGGIHVTYYASWAKGRFTISKTSSTTVTLQMTSLTAADTATYFCIISTGGSHRFNLWGPGTLVTVSS
# VL: DVVMTQTPSPVSAAVGGTVTINCQASESIYTYLSWYQQKPGQPPKLLIYRASTLESGVPSRFKGSGSGTQFTLTISDLECADAATYYCQATDVGGSGRGAFGGGTEVVVE
# notes: rabbit IgG; 9 FWRH and 9 FWRL residues reverted to the germ line
# B7: framework region (FWR) amino acid reverted anti-ZIKV MAb 306-2 (antibody, V domains shown)
# VH: B5 VH with G49A, R72K, R84S
# VL: B5 VL with S10P, A34S, R39K, T53N, G66R
# notes: rabbit IgG; 3 FWRH and 5 FWRL residues reverted to the germ line; also called allele reverted MAb 306-2; MAb 306-2 with amino acid reverted to allele
# B8: anti-ZIKV MAb 11-3 (antibody, V domains shown)
# VH: QEQLVESGGGLVQPEGSLTITCTGSGFSFSSRFYMCWVRQAPGKGLEWIACIYGGSSGSTYYASWAKGRFTISKTSSTTVTLQISSLTAADTATYFCARGGSTAAAGFNLWGPGTLLTVSS
# VL: DVVMTQTPASVSATVGGTVTIKCQASEDIYNLLAWYQQKPGQPPKLLIYYASTLASGVPSRFKGSGSGTEFTLTISDLECADAATYYCQCNDYGGTYVPNAFGGGTEVVVK
# notes: recombinant rabbit IgG
# Legend:
# [1] = target: T1, ZIKV E protein (Suriname Z1106033) (Zika virus, Suriname Z1106033, UniProt A0A0U4DG08, strain); experiment: BLI; Octet HTX; MAb 0.1 to 0.3 μg/mL amine-coupled to AR2G biosensor; ZIKV-VLP 0.1 to 1.0 μg/mL or ZIKV E protein 0.2 to 2 μg/mL in 1x kinetic buffer; association 900 s, dissociation 1,200 s; Langmuir 1:1 model; average of two runs; conditions: both partners purified
# T1 construct: also called soluble ZIKV E protein
# [2] = target: T2, ZIKV virus-like particles (Suriname Z1106033) (Zika virus, Suriname Z1106033, UniProt A0A0U4DG08, strain); experiment: as above; conditions: both partners purified
# T2 construct: also called ZIKV-VLP; VLP; source: bought: The Native Antigen Company
# [3] = target: T1, ZIKV E protein (Suriname Z1106033); experiment: cell-based or functional assay
# [4] = target: T3, wild-type ZIKV prM/E (ZIKV SPH2015) (Zika virus, SPH2015, UniProt A0A0U3FSM8, strain); experiment: flow cytometry on cells; conditions: one partner purified
# T3 construct: also called WT prM/E; wild-type prM/E; source: HEK-293T, transfected, cells fixed and permeabilised
# [5] = target: ZIKV prM/E (ZIKV SPH2015), E G182A (Zika virus (ZIKV SPH2015)); experiment: flow cytometry on cells
# [6] = target: ZIKV prM/E (ZIKV SPH2015), E K301A (Zika virus (ZIKV SPH2015)); experiment: flow cytometry on cells
# [7] = target: ZIKV prM/E (ZIKV SPH2015), prM G59A (Zika virus (ZIKV SPH2015)); experiment: flow cytometry on cells
# [8] = target: ZIKV prM/E (ZIKV SPH2015), E E162A (Zika virus (ZIKV SPH2015)); experiment: flow cytometry on cells
# [9] = target: ZIKV prM/E (ZIKV SPH2015), E H398A (Zika virus (ZIKV SPH2015)); experiment: flow cytometry on cells
# [10] = target: ZIKV prM/E (ZIKV SPH2015), E I317A (Zika virus (ZIKV SPH2015)); experiment: flow cytometry on cells
# [11] = target: ZIKV prM/E (ZIKV SPH2015), E G302A (Zika virus (ZIKV SPH2015)); experiment: flow cytometry on cells
# [12] = target: ZIKV prM/E (ZIKV SPH2015), E G100A (Zika virus (ZIKV SPH2015)); experiment: flow cytometry on cells
# [13] = target: ZIKV prM/E (ZIKV SPH2015), prM D57A (Zika virus (ZIKV SPH2015)); experiment: flow cytometry on cells
# [14] = target: ZIKV prM/E (ZIKV SPH2015), E T309A (Zika virus (ZIKV SPH2015)); experiment: flow cytometry on cells
# [15] = target: ZIKV prM/E (ZIKV SPH2015), E T397A (Zika virus (ZIKV SPH2015)); experiment: flow cytometry on cells
# [16] = target: ZIKV prM/E (ZIKV SPH2015), E S368A (Zika virus (ZIKV SPH2015)); experiment: flow cytometry on cells
# [17] = target: ZIKV prM/E (ZIKV SPH2015), E T369A (Zika virus (ZIKV SPH2015)); experiment: flow cytometry on cells
# [18] = target: ZIKV prM/E (ZIKV SPH2015), prM V60A (Zika virus (ZIKV SPH2015)); experiment: flow cytometry on cells
# [19] = target: ZIKV prM/E (ZIKV SPH2015), E G337A (Zika virus (ZIKV SPH2015)); experiment: flow cytometry on cells
# [20] = target: ZIKV prM/E (ZIKV SPH2015), E T335A (Zika virus (ZIKV SPH2015)); experiment: flow cytometry on cells
# [21] = target: ZIKV prM/E (ZIKV SPH2015), prM E58A (Zika virus (ZIKV SPH2015)); experiment: flow cytometry on cells
# [22] = target: ZIKV prM/E (ZIKV SPH2015), E H399A (Zika virus (ZIKV SPH2015)); experiment: flow cytometry on cells
# [23] = target: ZIKV prM/E (ZIKV SPH2015), E L107A (Zika virus (ZIKV SPH2015)); experiment: flow cytometry on cells
# [24] = target: ZIKV prM/E (ZIKV SPH2015), E E370A (Zika virus (ZIKV SPH2015)); experiment: flow cytometry on cells
# [25] = target: T2, ZIKV virus-like particles (Suriname …); experiment: Luminex bead assay; VLP conjugated to MagPlex beads (EDC/NHS); 10,000 beads/mL with 10 μg/mL to 0.0002 ng/mL MAb, 90 min, room temperature, 1% BSA in D-PBS; detected with phycoerythrin-labeled anti-rabbit IgG; conditions: both partners purified
# [26] = target: T1, ZIKV E protein (Suriname Z1106033); experiment: BLI; Octet HTX; 2 μg/mL MAb captured on protein G biosensor in 0.1% BSA-PBST; 3 μg/mL ZIKV E protein associated 600 s, dissociated 900 s; conditions: both partners purified
Binder,Kd [1],koff [1],kon [1],Kd [2],koff [2],kon [2],other [3],binding result [4],further results
B1,1220 pM,8.16e-05 s⁻¹,67100 M⁻¹ s⁻¹,240 pM,4.93e-05 s⁻¹,202000 M⁻¹ s⁻¹,42.8 ng/mL,binds,antibody binding reactivity (% WT) [5]: 85.6 % WT; antibody binding reactivity (% WT) [6]: 78.7 % WT; antibody binding reactivity (% WT) [7]: 94.9 % WT; antibody binding reactivity (% WT) [8]: 79.6 % WT; antibody binding reactivity (% WT) [9]: 77.2 % WT; antibody binding reactivity (% WT) [10]: 112 % WT; antibody binding reactivity (% WT) [11]: 68.3 % WT; antibody binding reactivity (% WT) [12]: 70.3 % WT; antibody binding reactivity (% WT) [13]: 91.9 % WT; antibody binding reactivity (% WT) [14]: 104 % WT; antibody binding reactivity (% WT) [15]: 111 % WT; antibody binding reactivity (% WT) [16]: 89.1 % WT; antibody binding reactivity (% WT) [17]: 34.5 % WT; antibody binding reactivity (% WT) [18]: 97.2 % WT; antibody binding reactivity (% WT) [19]: 48.3 % WT; antibody binding reactivity (% WT) [20]: 36.2 % WT; antibody binding reactivity (% WT) [21]: 96.8 % WT; antibody binding reactivity (% WT) [22]: 127 % WT; antibody binding reactivity (% WT) [23]: 122 % WT
B2,100 pM,1.94e-05 s⁻¹,192000 M⁻¹ s⁻¹,190 pM,4.28e-05 s⁻¹,221000 M⁻¹ s⁻¹,,binds,antibody binding reactivity (% WT) [5]: 110 % WT; antibody binding reactivity (% WT) [24]: 92.7 % WT; antibody binding reactivity (% WT) [6]: 82.5 % WT; antibody binding reactivity (% WT) [7]: 117 % WT; antibody binding reactivity (% WT) [8]: 101 % WT; antibody binding reactivity (% WT) [9]: 92.9 % WT; antibody binding reactivity (% WT) [10]: 61.2 % WT; antibody binding reactivity (% WT) [11]: 69.2 % WT; antibody binding reactivity (% WT) [13]: 123 % WT; antibody binding reactivity (% WT) [14]: 96.2 % WT; antibody binding reactivity (% WT) [15]: 147 % WT; antibody binding reactivity (% WT) [16]: 87.5 % WT; antibody binding reactivity (% WT) [17]: 113 % WT; antibody binding reactivity (% WT) [18]: 113 % WT; antibody binding reactivity (% WT) [19]: 59.7 % WT; antibody binding reactivity (% WT) [20]: 71.6 % WT; antibody binding reactivity (% WT) [21]: 130 % WT; antibody binding reactivity (% WT) [22]: 97.2 % WT
B3,1040 pM,9.8e-05 s⁻¹,94500 M⁻¹ s⁻¹,310 pM,4.27e-05 s⁻¹,140000 M⁻¹ s⁻¹,,binds,"MNT titer, IC50 (microneutralization of ZIKV PRVABC59 on Vero cells) [3]: 0.0372 µg/mL"
B4,290 pM,3.68e-05 s⁻¹,129000 M⁻¹ s⁻¹,300 pM,4.58e-05 s⁻¹,155000 M⁻¹ s⁻¹,7.8 ng/mL,binds,
B5,170 pM,2.04e-05 s⁻¹,117000 M⁻¹ s⁻¹,400 pM,6.34e-05 s⁻¹,160000 M⁻¹ s⁻¹,10500 ng/mL,binds,
B6,,,,,,,,,binding result [25]: binds; binding result [26]: binds
B7,,,,,,,,,binding result [25]: binds; binding result [26]: binds
B8,1530 pM,0.000137 s⁻¹,89800 M⁻¹ s⁻¹,570 pM,7.13e-05 s⁻¹,125000 M⁻¹ s⁻¹,,,
